Measured values as given in PMC2033796, “Mechanisms of acquired resistance to the quinazoline thymidylate synthase inhibitor ZD1694 (Tomudex) in one mouse and three human cell lines” (British Journal of Cancer, 1995).

Substrate: Nc1nc2c(c(=O)[nH]1)N1CN(c3ccc(C(=O)N[C@@H](CCC(=O)O)C(=O)O)cc3)CC1CN2
Test: purified protein
Type: biochemical, Homo sapiens
Settings: co-substrate dUMP; mixed diastereoisomers (6R,S)

B1: TS isolated from human ovarian CH1 cells (CH1 TS) (Homo sapiens) (protein)
chain: PVAGSELPRRPLPPAAQERDAEPRPPHGELQYLGQIQHILRCGVRKDDRTGTGTLSVFGMQARYSLRDEFPLLTTKRVFWKGVLEELLWFIKGSTNAKELSSKGVKIWDANGSRDFLDSLGFSTREEGDLGPVYGFQWRHFGAEYRDMESDYSGQGVDQLQRVIDTIKTNPDDRRIIMCAWNPRDLPLMALPPCHALCQFYVVNSELSCQLYQRSGDMGLGVPFNIASYALLTYMIAHITGLKPGDFIHTLGDAHIYLNHIEPLKIQLQREPRPFPKLRILRKVEKIDDFKAEDFQIEGYNPHPTIKMEMAV
notes: native enzyme partially purified from CH1 ovarian tumour cells (parental line), no tag
With B1 the Km was 24 ± 0.8 µM.
